Experimental data reported in article PMC10188207.
Each block holds one substance with its values, some of them ahead of it.

Columns and labels:
[1] = test system: FoxP1 FKH domain (human); assay: fluorescence anisotropy; conditions: 200 nM labeled DNA, protein 0-500 nM; 'standard buffer' (composition, salt and pH not in material); dimerization assays at 37 C, DNA-binding temperature not stated; ex 480 nm, em 525 nm
[2] = test system: FoxP1 ZIP-lin-FKH (human); assay: fluorescence anisotropy; conditions: 200 nM labeled DNA, protein 0-500 nM; 'standard buffer' (composition, salt and pH not in material); dimerization assays at 37 C, DNA-binding temperature not stated; ex 480 nm, em 525 nm
[3] = target: FoxP1 ZIP-lin-FKH (leucine zipper, linker and Forkhead domain, residues 342-548), unlabeled wild type (human) (UniProt Q9H334); assay: SEC; Superdex 75 increase, 20 mM HEPES pH 7.8, 150 mM NaCl; unlabeled protein at 10 µM; molecular weight from a calibration curve with known proteins
[4] = target: FoxP1 ZIP(A356C)-lin-FKH labeled with BODIPY FL (human) (UniProt Q9H334); assay: fluorescence polarisation; fluorescence anisotropy; 5 nM BODIPY FL-labeled single-cysteine protein titrated with its unlabeled wild-type construct (0-5000 nM ZIP-lin, 0-200 nM ZIP-lin-FKH), 37 °C; two-state model, monomer-dimer equilibrium; duplicates
[5] = target: FoxP1 ZIP(A356C)-lin-FKH labeled with BODIPY FL (human) (UniProt Q9H334); assay: fluorescence polarisation; fluorescence anisotropy; 5 nM labeled monomer preincubated with 10 nM unlabeled DNA, then titrated with unlabeled wild-type ZIP-lin-FKH that was previously denatured to ensure the monomeric form; apparent KD; monomer-dimer equilibrium
[6] = target: FoxP1 ZIP-lin (leucine zipper domain with the linker, residues 342-462), unlabeled wild type (human) (UniProt Q9H334); assay: SEC; Superdex 75 increase, 20 mM HEPES pH 7.8, 150 mM NaCl; unlabeled protein at 10 µM; molecular weight from a calibration curve with known proteins
[7] = target: FoxP1 ZIP(A356C)-lin labeled with BODIPY FL (human) (UniProt Q9H334); assay: fluorescence polarisation; fluorescence anisotropy; 5 nM BODIPY FL-labeled single-cysteine protein titrated with its unlabeled wild-type construct (0-5000 nM ZIP-lin, 0-200 nM ZIP-lin-FKH), 37 °C; two-state model, monomer-dimer equilibrium; duplicates

Substance: FoxP1 FKH cognate DNA, Alexa488-labeled
Kd [1]: 0.176 µM
Kd [2]: 0.17 µM

stoichiometry N [3]: 2
Kd [4]: 0.029 µM
Kd [5]: 0.055 µM
Substance: FoxP1 ZIP-lin-FKH (leucine zipper, linker and Forkhead domain, residues 342-548), unlabeled wild type (from UniProt Q9H334 342-548) (domain or fragment)

stoichiometry N [6]: 2
Kd [7]: 0.123 µM
Substance: FoxP1 ZIP-lin (leucine zipper domain with the linker, residues 342-462), unlabeled wild type (from UniProt Q9H334 342-462) (domain or fragment)
